Measured values published in US20240270821A1, “GIP/GLP1/GCG TRI-RECEPTOR AGONISTS AND USES THEREOF” (priority 2023, published 2024).
Starred links: 1 amine or outer side, 2 acyl side, 3 side chain; linkers in the order of their positions; H or OH if unused. Non-standard residues stand in square brackets, D forms with d. Groups on a side chain read outwards from the residue. No end group written: not given here. *: point of attachment. C20 diacid = O=C(O)CCCCCCCCCCCCCCCCCCC(=O)*; C18 diacid = O=C(O)CCCCCCCCCCCCCCCCC(=O)*; Phe(4-CN) = N#Cc1ccc(C[C@H](N)C(=O)O)cc1; αMePhe(2-F) = C[C@](N)(Cc1ccccc1F)C(=O)O; γGlu = O=C(O)[C@H](CCC(=O)[*:2])N[*:1]; NMeY = CN[C@@H](Cc1ccc(O)cc1)C(=O)O; αMeF = C[C@](N)(Cc1ccccc1)C(=O)O; αMeL = CC(C)C[C@](C)(N)C(=O)O; Orn = NCCC[C@H](N)C(=O)O; AEEA = NCCOCCOCC(=O)O; Aib = CC(C)(N)C(=O)O

Assays:
Test in all cases: cell-based or functional assay
[1] = biological target: Pro-Link-tagged Human GLP-1R (human) (UniProt P43220)
hGLP-1R = hGLP-1R (Homo sapiens, UniProt P43220)
[2] = biological target: T1, human GIP receptor (human) (UniProt P48546)
T1 sequence (looked up): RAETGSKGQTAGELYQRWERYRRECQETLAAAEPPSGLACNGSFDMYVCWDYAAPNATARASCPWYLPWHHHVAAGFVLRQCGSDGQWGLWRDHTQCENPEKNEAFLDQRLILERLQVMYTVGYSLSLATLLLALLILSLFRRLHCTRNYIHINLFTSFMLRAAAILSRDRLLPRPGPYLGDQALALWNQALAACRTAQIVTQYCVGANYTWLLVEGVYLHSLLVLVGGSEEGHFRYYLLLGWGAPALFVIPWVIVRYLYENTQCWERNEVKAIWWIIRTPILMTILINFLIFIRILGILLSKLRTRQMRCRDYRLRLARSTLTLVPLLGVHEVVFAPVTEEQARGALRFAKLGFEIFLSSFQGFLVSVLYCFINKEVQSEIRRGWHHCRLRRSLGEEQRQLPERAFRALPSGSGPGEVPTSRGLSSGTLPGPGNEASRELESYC

[3] = biological target: human glucagon receptor (human) (UniProt P47871)
[4] = biological target: human GLP-1R (SNAP-GLP-1R expressed in HEK293 cells) (human) (UniProt P43220)
[5] = biological target: human GLP1-R (SNAP-GLP-1R expressed in HEK293 cells) (human) (UniProt P43220)
Sequence of human GLP1-R (SNAP-GLP-1R expressed in HEK293 cells) (human) (P43220 24-463): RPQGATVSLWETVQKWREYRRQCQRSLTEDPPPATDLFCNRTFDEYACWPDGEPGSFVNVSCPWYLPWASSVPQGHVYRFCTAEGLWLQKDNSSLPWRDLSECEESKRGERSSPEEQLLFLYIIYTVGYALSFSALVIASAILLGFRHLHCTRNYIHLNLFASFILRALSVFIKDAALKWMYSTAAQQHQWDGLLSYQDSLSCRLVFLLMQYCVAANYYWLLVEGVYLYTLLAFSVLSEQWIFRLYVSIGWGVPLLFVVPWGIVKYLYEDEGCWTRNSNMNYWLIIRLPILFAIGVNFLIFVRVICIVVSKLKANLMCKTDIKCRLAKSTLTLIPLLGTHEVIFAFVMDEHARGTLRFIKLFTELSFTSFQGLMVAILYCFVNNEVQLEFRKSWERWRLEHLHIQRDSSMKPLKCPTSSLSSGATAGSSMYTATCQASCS

Sequence of Pro-Link-tagged Human GLP-1R (human) (P43220 24-463): as above
Sequence of human GLP-1R (SNAP-GLP-1R expressed in HEK293 cells) (human) (P43220 24-463): as above
Sequence of hGLP-1R (P43220 24-463): as above
Sequence of human glucagon receptor (human) (P47871 26-477): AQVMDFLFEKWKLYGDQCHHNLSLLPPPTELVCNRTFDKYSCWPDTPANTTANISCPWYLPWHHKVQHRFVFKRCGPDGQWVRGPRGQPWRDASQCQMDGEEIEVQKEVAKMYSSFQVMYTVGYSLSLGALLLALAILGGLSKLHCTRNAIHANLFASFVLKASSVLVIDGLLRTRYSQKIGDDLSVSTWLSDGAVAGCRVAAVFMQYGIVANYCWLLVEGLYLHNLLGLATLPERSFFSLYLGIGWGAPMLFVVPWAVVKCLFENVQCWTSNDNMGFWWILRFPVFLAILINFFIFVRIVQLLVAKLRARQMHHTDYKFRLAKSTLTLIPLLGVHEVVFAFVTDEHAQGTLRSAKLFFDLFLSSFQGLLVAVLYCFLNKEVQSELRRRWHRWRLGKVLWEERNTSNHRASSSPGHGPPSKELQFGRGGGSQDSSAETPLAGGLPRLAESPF

Binder | % Stimulation Max [1] [%] | hGLP1R β-arrestin Rel EC50 [1] [nM] | Relative cAMP EC50 (hGLP-1R) [nM] | cAMP Rel EC50 (1% HSA) (hGLP-1R) [nM] | Relative cAMP EC50 [2] [nM] | cAMP Rel EC50 (1% HSA) [2] [nM] | Relative cAMP EC50 [3] [nM] | cAMP Rel EC50 (1% HSA) [3] [nM] | cAMP Rel EC50 (in the presence of 1% HSA) (hGLP-1R) [nM] | cAMP Rel EC50 (in the presence of 1% HSA) [2] [nM] | GLP1R Internalization EC50 [4] [nM] | Internalization % TOP [4] [%] | cAMP Rel EC50 (in the presence of 1% HSA) [3] [nM] | GLP1R Internalization EC50 [5] [nM] | Internalization % TOP [5] [%]
Y[Aib]QGT[αMeF]TSDYSILLDKIAAKNFIEYLVEGGPSSGEPPPSEG-NH2 (not fully specified (residue 20)) [Example 307] | 70.8 | 9.86 | 0.836 | 209 | 0.446 | 65.3 | 1.68 | 1880 |  |  |  |  |  |  | 
Y[Aib]QGT[αMePhe(2-F)]TSDYSKLLDKIAQKAFIEYLIEGGPSSGEPPPSEG-NH2 (not fully specified (residue 20)) [Example 304] | 47.8 | 9.21 | 0.551 | 172 | 0.127 | 48 | 2.31 | 1720 |  |  |  |  |  |  | 
[NMeY][Aib]QGT[αMeF]TSDYSILLDKQAAKAFVQWLIEGGPSSGEPPPSEG-NH2 (not fully specified (residue 20)) [Example 302] | 56.6 | 11.2 | 0.621 | 73.6 | 0.7 | 91.8 | 4.47 | 1370 |  |  |  |  |  |  | 
Y[Aib]QGTFTSDYSI[αMeL]LDKK([AEEA-γGlu-C20 diacid])AQRAFIEYLLEGGPSSGEPPPSEG-NH2 [Example 289] | 47.5 | 5.96 | 0.449 |  | 0.382 |  | 5.02 |  | 139 | 105 | 10.9 | 86.5 | 1750 |  | 
Y[Aib]QGTFTSDYSI[αMeL]LDKIAAK([AEEA-AEEA-γGlu-C20 diacid])QFVQWLIE[Aib]GPSSGEPPPSEG-NH2 [Example 323] | 44 | 10.8 | 1.56 | 293 | 0.232 | 37.7 | 6.04 | 1440 |  |  | 28.2 | 84.8 |  |  | 
Y[Aib]QGT[αMePhe(2-F)]TSDYSKLLDKQAQK([AEEA-γGlu-C20 diacid])QFIEYLIEGGPSSGEPPPSEG-NH2 [Example 309] | 47.2 | 6.72 | 0.808 | 251 | 0.32 | 424 | 9.28 | 3910 |  |  |  |  |  |  | 
Y[Aib]QGT[αMePhe(2-F)]TSDYSKLLDKIAQK([AEEA-γGlu-C20 diacid])AFIEYLLEGGPSSGEPPPSEG-NH2 [Example 295] | 44.1 | 16.4 | 0.831 |  | 0.126 |  | 2.15 |  | 232 | 61.1 | 31.4 | 88.4 | 605 |  | 
Y[Aib]QGT[αMePhe(2-F)]TSDYSILLDKIAAK([AEEA-γGlu-C20 diacid])AFIEYLIEGGPSSGEPPPSEG-NH2 [Example 296] | 55.2 | 14 | 0.536 |  | 0.0806 |  | 1.72 |  | 171 | 21.8 | 19.2 | 87.2 | 517 |  | 
[NMeY][Aib]QGT[αMeF]TSDYSILLDKQAAKAFVQWLIAGGPSSGEPPPSEG-NH2 (not fully specified (residue 20)) [Example 301] | 59.1 | 13.2 | 0.641 | 82.4 | 0.722 | 81.8 | 6.73 | 1500 |  |  |  |  |  |  | 
YXQGTFTSDFSKXLDKKAQXAFIEYLLAGGPSSGEPPPSEG (synthetic construct; SITE 2: note = 2-Aminoisobutyric Acid; SITE 13: note = alpha-methyl-leucine; SITE 17: note = Lysine is chemically modified through conjugation of the epsilon-amino group of the Lysine side chain with (2-[2-(2-Amino-ethoxy)-ethoxy]-acetyl)-(gamma-Glu)-CO-(CH2) 18-CO2H; SITE 20: n) [Example 1] | 17.3 | > 10000 | 1.42 |  | 0.207 |  | 3.72 |  | 524 | 73.9 |  |  | 1690 | 44.7 | 69.1
YXQGTFTSDFSKXLDKKAQXAFIEYLLAGGPSSGEPPPSGE (synthetic construct; SITE 2: note = 2-Aminoisobutyric Acid; SITE 13: note = alpha-methyl-leucine; SITE 17: note = Lysine is chemically modified through conjugation of the epsilon-amino group of the Lysine side chain with (2-[2-(2-Amino-ethoxy)-ethoxy]-acetyl)-(gamma-Glu)-CO-(CH2) 18-CO2H; SITE 20: n) [Example 2] | 12.3 | > 10000 | 1.65 |  | 0.207 |  | 4.29 |  | 631 | 75.5 |  |  | 1630 | 49.5 | 66.8
YXQGTFTSDFSIXLDKKAQXAFIEYLLEGGPSSGEPPPSEG (non-natural residues; acylated Lys; C-terminal amide; synthetic construct; SITE 2: note = 2-Aminoisobutyric Acid; SITE 13: note = alpha-methyl-leucine; SITE 17: note = Lysine is chemically modified through conjugation of the epsilon-amino group of the Lysine side chain with (2-[2-(2-Amino-ethoxy)-ethoxy]-acetyl)-(gamma-Glu)-CO-(CH2) 18-CO2H; SITE 20: n) [Example 288] | 18 | 16.3 | 1.89 |  | 0.234 |  | 5.17 |  | 616 | 59.1 | 30.3 | 72.4 | 3580 |  | 
Y[Aib]QGT[αMePhe(2-F)]TSDYSKILDKIAQK([AEEA-γGlu-C20 diacid])AFIEYLLEGGPSSGEPPPSEG-NH2 [Example 311] | 39.6 | 19.2 | 3.36 | 1080 | 0.113 | 26.1 | 2.08 | 2500 |  |  |  |  |  |  | 
Y[Aib]QGTFTSDYSI[αMeL]LDKQAAKQFVEWLLA[Aib]GPSSGEPPPSEG (not fully specified (residue 20)) [Example 329] | 74.5 | 6.11 | 0.926 | 204 | 0.207 | 42.6 | 3.47 | 842 |  |  | 34 | 91.1 |  |  | 
Y[Aib]QGT[αMePhe(2-F)]TSD[Phe(4-CN)]SILLDKQAQK([AEEA-AEEA-γGlu-C20 diacid])AFIEYLLEGGPSSGEPPPSEG-NH2 [Example 321] | 90.1 | 8.78 | 0.798 | 110 | 0.0912 | 13 | 4.49 | 836 |  |  | 27.1 | 92.8 |  |  | 
Y[Aib]QGTFTSDYSK[αMeL]LDKK([AEEA-γGlu-C20 diacid])AQQAFVQWLIEGGPSSGEPPPSEG-NH2 [Example 315] | 29.7 | 3.76 | 0.508 | 140 | 0.398 | 85.1 | 4.05 | 1560 |  |  |  |  |  |  | 
Y[Aib]QGTFTSDYSI[αMeL]LDKQAAKAFVEWLLAGGPSSGEPPPSEG-NH2 (not fully specified (residue 20)) [Example 305] | 58.3 | 23.3 | 1.48 | 415 | 1 | 92.4 | 6.73 | 1500 |  |  |  |  |  |  | 
Y[Aib]QGTFTSDYSI[αMeL]LDKIAAK([AEEA-AEEA-γGlu-C20 diacid])[Orn]FVQYLIAGGPSSGEPPPSEG-NH2 [Example 308] | 41.4 | 16.9 | 3.15 | 477 |  | 237 | 14.2 | 4950 |  |  |  |  |  |  | 
